In patent publication US20200255543A1 (ROCKEFELLER UNIVERSITY, published 2020):

Columns and labels:
[1] = molecular target: T1, recombinant human MERTK (human, UniProt Q12866 21-505, limits assumed); experiment: biolayer interferometry, M19 loaded on AMQ sensor at 1 ug/mL, hMer in solution at 5 to 0.0781 nM, global 1:1 fit
T1 construct: Analyte in solution in biolayer interferometry; also called hMer
T1 sequence: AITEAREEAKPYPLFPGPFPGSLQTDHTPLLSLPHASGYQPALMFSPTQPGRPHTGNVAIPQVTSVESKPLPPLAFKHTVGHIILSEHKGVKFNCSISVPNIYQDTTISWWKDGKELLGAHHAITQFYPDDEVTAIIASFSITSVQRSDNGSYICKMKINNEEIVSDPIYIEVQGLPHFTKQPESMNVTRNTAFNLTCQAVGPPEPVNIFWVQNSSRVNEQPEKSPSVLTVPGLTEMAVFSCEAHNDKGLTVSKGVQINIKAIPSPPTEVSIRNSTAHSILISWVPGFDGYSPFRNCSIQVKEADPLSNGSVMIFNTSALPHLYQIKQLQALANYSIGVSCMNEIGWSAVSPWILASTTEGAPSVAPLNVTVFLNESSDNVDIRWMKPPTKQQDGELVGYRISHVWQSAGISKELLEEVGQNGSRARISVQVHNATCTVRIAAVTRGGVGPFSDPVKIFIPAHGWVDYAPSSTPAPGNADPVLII
Protocol: (§1) FIG. 7: M19 binds to human MERTK with high affinity. A diagram showing antibody binding kinetics for M19 (Mer-M19) against human MERTK (hMer) using biolayer interferometry. Purified M19 was loaded on an AMQ sensor at a concentration of 1 microgram/mL to test binding against analytes in solution. All analytes were prepared at 5 nM with a 2-fold dilution series for a total of 7 concentrations. Kinetic fits were calculated using a 1:1 model, with Local fits for each concentration as well as an overall global fit.
(§2) To characterize the binding affinity of M19 antibody against recombinant human and mouse MERTK, biomolecular interaction analysis was performed using biolayer interferometry (FIG. 7 and FIG. 8). Binding was observed between M19 and both mouse and human MERTK.

[2] = molecular target: T2, recombinant mouse MERTK (mouse, UniProt Q60805 23-496, limits assumed); experiment: biolayer interferometry, M19 loaded on AMQ sensor at 1 ug/mL, msMer in solution at 0.0781 nM, local 1:1 fit
T2 construct: Analyte in solution in biolayer interferometry; also called msMer; murine MERTK
T2 sequence (looked up): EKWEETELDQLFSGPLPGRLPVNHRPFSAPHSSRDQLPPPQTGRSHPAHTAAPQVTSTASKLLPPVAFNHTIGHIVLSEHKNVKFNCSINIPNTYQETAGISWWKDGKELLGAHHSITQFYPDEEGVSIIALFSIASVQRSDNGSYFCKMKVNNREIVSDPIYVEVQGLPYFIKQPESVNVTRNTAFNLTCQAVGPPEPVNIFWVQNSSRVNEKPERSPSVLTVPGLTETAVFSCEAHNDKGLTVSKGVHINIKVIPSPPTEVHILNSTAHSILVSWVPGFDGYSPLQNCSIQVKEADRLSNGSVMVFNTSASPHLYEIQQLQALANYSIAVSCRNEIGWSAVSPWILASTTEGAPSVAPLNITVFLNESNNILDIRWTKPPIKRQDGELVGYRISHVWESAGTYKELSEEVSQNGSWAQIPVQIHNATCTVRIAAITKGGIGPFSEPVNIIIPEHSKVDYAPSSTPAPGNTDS
Protocol: as §1, with “8:” for “7:”, “murine” for “human”, “(msMer)” for “(hMer)”, “Global” for “global”
as §2

[3] = molecular target: T1, recombinant human MERTK; experiment: biolayer interferometry, M19 loaded on AMQ sensor at 1 ug/mL, hMer in solution at 2.5 nM, local 1:1 fit
Protocol: as §1, §2

[4] = molecular target: T2, recombinant mouse MERTK; experiment: biolayer interferometry, M19 loaded on AMQ sensor at 1 ug/mL, msMer in solution at 5 to 0.0781 nM, global 1:1 fit
Protocol: as §1, with “8:” for “7:”, “murine” for “human”, “(msMer)” for “(hMer)”, “Global” for “global”
as §2

[5] = molecular target: T2, recombinant mouse MERTK; experiment: biolayer interferometry, M19 loaded on AMQ sensor at 1 ug/mL, msMer in solution at 0.3125 nM, local 1:1 fit
Protocol: as §1, with “8:” for “7:”, “murine” for “human”, “(msMer)” for “(hMer)”, “Global” for “global”
as §2

[6] = molecular target: T1, recombinant human MERTK; experiment: biolayer interferometry, M19 loaded on AMQ sensor at 1 ug/mL, hMer in solution at 1.25 nM, local 1:1 fit
Protocol: as §1, §2

[7] = molecular target: T2, recombinant mouse MERTK; experiment: biolayer interferometry, M19 loaded on AMQ sensor at 1 ug/mL, msMer in solution at 1.25 nM, local 1:1 fit
Protocol: as §1, with “8:” for “7:”, “murine” for “human”, “(msMer)” for “(hMer)”, “Global” for “global”
as §2

[8] = molecular target: T1, recombinant human MERTK; experiment: biolayer interferometry, M19 loaded on AMQ sensor at 1 ug/mL, hMer in solution at 5 nM, local 1:1 fit
Protocol: as §1, §2

[9] = molecular target: T2, recombinant mouse MERTK; experiment: biolayer interferometry, M19 loaded on AMQ sensor at 1 ug/mL, msMer in solution at 0.625 nM, local 1:1 fit
Protocol: as §1, with “8:” for “7:”, “murine” for “human”, “(msMer)” for “(hMer)”, “Global” for “global”
as §2

[10] = molecular target: T1, recombinant human MERTK; experiment: biolayer interferometry, M19 loaded on AMQ sensor at 1 ug/mL, hMer in solution at 0.0781 nM, local 1:1 fit
Protocol: as §1, §2

B1: monoclonal antibody M19 (antibody, V domains shown)
VH: EVQLEESGPDLKKPGETVKISCKASNYTFTDYSMHWVKQAPGKGLKWVGWINTDTGEPTYADDFKGRFAFSLETSASTAYLQINNLKNEDTATYFCARWFGAMDYWGQGTSVTVSS
VL: DIVITQSHKFMSTSVGDRVSITCKASQDVTNVVAWYQQKPGQSPKLLIYSASYRYTGVPDRFTGSGSGTDFTFTISSVQAEDLAVYYCQQYYRTPRTFGGGTKLEIKR
notes: Mouse hybridoma monoclonal antibody; Hybridoma supernatant was used in the ELISA screen, purified antibody in biolayer interferometry; also called Mer-M19
koff [1]: 0.001 s⁻¹ | kon [1]: 3.08e+06 M⁻¹ s⁻¹ | Kd [2]: 0.0472 nM | koff [2]: 0.00108 s⁻¹ | kon [2]: 2.29e+07 M⁻¹ s⁻¹ | Kd [3]: 0.339 nM | koff [3]: 0.000899 s⁻¹ | kon [3]: 2.65e+06 M⁻¹ s⁻¹ | koff [4]: 0.00144 s⁻¹ | kon [4]: 4.71e+06 M⁻¹ s⁻¹ | Kd [5]: 0.115 nM | koff [5]: 0.00106 s⁻¹ | kon [5]: 9.23e+06 M⁻¹ s⁻¹ | Kd [6]: 0.297 nM | koff [6]: 0.00102 s⁻¹ | kon [6]: 3.44e+06 M⁻¹ s⁻¹ | Kd [7]: 0.282 nM | koff [7]: 0.00149 s⁻¹ | kon [7]: 5.27e+06 M⁻¹ s⁻¹ | Kd [8]: 0.246 nM | koff [8]: 0.000951 s⁻¹ | kon [8]: 3.86e+06 M⁻¹ s⁻¹ | Kd [9]: 0.198 nM | koff [9]: 0.00137 s⁻¹ | kon [9]: 6.92e+06 M⁻¹ s⁻¹ | Kd [10]: 0.0765 nM | koff [10]: 0.000934 s⁻¹ | kon [10]: 1.22e+07 M⁻¹ s⁻¹
